Values quoted from earlier work as cited in PMC6811625.

Target: Im7 (Escherichia coli) (UniProt Q03708)
Sequence (Q03708 whole entry): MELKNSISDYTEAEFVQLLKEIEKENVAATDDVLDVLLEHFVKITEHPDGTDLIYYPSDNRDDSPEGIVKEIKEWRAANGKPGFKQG

Spy, sequence (P77754 24-161): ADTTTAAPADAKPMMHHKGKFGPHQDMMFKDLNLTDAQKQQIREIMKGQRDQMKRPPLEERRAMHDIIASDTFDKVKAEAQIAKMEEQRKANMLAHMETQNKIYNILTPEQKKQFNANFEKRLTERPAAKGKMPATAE

Substance: Spy (from UniProt P77754)
- Kd: 30 µM
